Patent US20160168251A1 (MorphoSys, published 2016)
Changes are numbered by the printed parent chain.

B1: 5502 IgG4_Pro (antibody, V domains shown)
VH: QVQLQQSGPGLVKPSQTLSLTCAISGDSVSSRSASWSWIRQSPGRGLEWLGRIYYRSKWYNDYAVSVKSRITINPDTSKNQFSLQLNSVTPEDTAVYYCARMDVPSFRYFDVWGQGTLVTVSS
VL: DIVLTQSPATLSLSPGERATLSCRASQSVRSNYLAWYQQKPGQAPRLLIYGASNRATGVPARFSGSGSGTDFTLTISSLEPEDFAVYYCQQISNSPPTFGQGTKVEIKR
notes: Human IgG4_Pro
B2: 5591 IgG4_Pro (antibody, V domains shown)
VH: B1 VH with I53T, K58H, N61Y, D62E, V65Q
VL: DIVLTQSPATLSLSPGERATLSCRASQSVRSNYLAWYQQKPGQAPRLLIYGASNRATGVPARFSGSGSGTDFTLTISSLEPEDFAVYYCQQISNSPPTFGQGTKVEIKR

Experiments:
[1] = target: T1, human NPRB on HEK293 cells in the presence of CNP (human, UniProt P20594 23-1047; P23582 105-126); assay: FACS, HEK NPRB cells with 100 nM CNP
T1 construct: whole, on cells;mature; also called HEK NPRB cells + 100 nM CNP
Procedure: HEK NPRA cells are detached with Accutase (PAA Laboratories GmbH, Cat. No. L11-007, Austria), harvested by centrifugation (900 rpm, 4 minutes) and resuspended in FACS buffer (PBS/3% FCS/0.02% NaN3) to a final concentration of 10⁶ cells/ml. 100 μl of the cell suspension is transferred to each well of a 96 round bottom plate (TC Microwell 96U, Nunc). […] Cells are washed in 150 μl of FACS buffer, pelleted and resuspended in 50 μl of the solution containing the primary antibody comprising a BEL extract of Fabs, a diluted BEL extract or purified antibody diluted in FACS buffer and incubated on ice for 30 min. Cells are washed again in FACS buffer and resuspended in 50 μl of FACS buffer containing the secondary antibody (R-Phycoerythrin-conjugated Affipure F(ab′)₂ Fragment Goat Anti-Human IgG, Dianova) and incubated on ice for 45 min. Cells are washed twice with FACS buffer and resuspended in 200 μl of FACS buffer for analysis in the FACS Array (BD Biosciences).

[2] = target: T2, rat NPRA on HEK cells bound to ANP (rat, UniProt P18910 29-1057; P01161 123-150); assay: cell-based or functional assay
T2 sequence (looked up): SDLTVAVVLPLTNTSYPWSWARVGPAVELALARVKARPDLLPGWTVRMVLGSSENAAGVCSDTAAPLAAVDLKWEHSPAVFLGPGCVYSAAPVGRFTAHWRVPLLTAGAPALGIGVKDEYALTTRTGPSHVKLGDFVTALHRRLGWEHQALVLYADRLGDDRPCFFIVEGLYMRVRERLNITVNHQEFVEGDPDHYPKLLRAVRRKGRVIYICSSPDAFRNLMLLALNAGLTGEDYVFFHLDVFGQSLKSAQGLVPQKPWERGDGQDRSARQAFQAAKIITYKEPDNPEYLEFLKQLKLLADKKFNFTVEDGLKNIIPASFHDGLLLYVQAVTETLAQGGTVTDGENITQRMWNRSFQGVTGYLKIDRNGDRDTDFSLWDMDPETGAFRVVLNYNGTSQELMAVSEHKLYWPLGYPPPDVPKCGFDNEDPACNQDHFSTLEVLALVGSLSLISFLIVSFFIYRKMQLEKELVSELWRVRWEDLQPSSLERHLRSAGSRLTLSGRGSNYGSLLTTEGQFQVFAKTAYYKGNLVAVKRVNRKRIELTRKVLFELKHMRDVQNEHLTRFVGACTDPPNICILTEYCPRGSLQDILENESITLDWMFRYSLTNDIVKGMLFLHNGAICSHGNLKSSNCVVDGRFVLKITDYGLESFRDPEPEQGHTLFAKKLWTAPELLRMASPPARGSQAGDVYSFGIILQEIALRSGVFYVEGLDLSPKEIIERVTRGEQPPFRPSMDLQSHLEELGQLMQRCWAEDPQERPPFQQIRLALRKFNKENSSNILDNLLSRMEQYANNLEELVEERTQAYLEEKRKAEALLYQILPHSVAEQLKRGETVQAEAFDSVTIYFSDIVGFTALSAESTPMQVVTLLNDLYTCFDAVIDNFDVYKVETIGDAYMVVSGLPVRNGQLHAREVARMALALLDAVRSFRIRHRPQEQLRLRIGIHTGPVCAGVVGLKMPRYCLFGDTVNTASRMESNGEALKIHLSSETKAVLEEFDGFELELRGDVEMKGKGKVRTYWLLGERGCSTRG
T2 sequence (peptide, looked up): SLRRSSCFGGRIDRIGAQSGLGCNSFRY

T1 sequence (P20594 23-1047 limits assumed, chain 1 of 2): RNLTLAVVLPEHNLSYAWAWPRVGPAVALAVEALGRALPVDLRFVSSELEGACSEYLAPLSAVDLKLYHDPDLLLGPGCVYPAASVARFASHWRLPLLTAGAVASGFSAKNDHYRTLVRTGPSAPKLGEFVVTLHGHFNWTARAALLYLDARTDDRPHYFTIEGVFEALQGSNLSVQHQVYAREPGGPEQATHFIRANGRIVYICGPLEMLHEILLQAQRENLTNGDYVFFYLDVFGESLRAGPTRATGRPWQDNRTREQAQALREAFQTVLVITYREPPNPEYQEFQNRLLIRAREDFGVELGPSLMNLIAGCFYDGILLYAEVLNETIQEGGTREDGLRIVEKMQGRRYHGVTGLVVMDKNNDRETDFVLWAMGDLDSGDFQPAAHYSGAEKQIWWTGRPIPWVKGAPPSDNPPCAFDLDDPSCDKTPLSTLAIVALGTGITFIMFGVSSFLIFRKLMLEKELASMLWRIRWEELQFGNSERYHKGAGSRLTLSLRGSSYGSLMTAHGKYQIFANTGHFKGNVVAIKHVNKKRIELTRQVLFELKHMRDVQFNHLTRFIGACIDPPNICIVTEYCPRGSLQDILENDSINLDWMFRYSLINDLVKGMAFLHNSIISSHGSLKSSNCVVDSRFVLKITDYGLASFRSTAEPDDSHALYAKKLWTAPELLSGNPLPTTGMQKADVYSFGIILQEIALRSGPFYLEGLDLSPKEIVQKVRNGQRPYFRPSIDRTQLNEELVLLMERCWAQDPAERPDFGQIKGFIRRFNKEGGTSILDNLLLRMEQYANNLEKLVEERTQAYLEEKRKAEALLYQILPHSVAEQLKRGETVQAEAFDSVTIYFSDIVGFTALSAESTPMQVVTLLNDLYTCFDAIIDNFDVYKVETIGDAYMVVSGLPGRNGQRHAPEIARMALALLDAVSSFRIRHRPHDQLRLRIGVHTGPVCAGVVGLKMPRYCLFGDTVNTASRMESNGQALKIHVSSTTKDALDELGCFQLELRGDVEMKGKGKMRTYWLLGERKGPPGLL
T1 sequence (P23582 105-126 limits assumed, chain 2 of 2): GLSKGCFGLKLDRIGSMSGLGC

Binder	binding result [1]	Fold shift in EC50 of ANP (cGMP), HEK cells with rat NPRA [2]
B1	no binding (tested: 20 nM)	
B2		3 fold
